The source of these data is US20060166868A1, “Vegf peptides and their use” (priority 2002, published 2006).

No end group written: not given here.

In one assay the target is T1, Neuropilin-1 (NP-1) (Homo sapiens, UniProt O14786).
T1 construct: expressed in transfected cells; host or cells: porcine aortic endothelial cells (PAE/NP1)
Description: 125I-VEGF165 binding to PAE/NP1 cells.

Assay [1] concerns the target T2, KDR (Homo sapiens, UniProt P35968).
T2 construct: expressed in transfected cells; host or cells: porcine aortic endothelial cells (PAE/KDR)
Put plainly: 125I-VEGF165 binding to PAE/KDR cells. The note with it: FIG. 2; cells expressing only KDR.

The target in another assay is T3, Flt-1 (Homo sapiens, UniProt P17948).
T3 construct: expressed in transfected cells; host or cells: porcine aortic endothelial cells (PAE/Flt-1)
Description: 125I-VEGF165 binding to PAE/Flt-1 cells. Conditions: FIG. 2; cells expressing only Flt-1.

The subject of assay [2] is human umbilical vein endothelial cells (HUVEC) which express NP-1, KDR and Flt-1. Put plainly: radiolabelled VEGF binding to HUVEC. Conditions: FIG. 2.
Assay [3] relates to KDR. Description: KDR Phosphorylation Assay. The note with it: FIG. 3; peptide at 10, 30 and 100 mM for 15 minutes, then 25 ng/ml VEGF for 10 minutes; immunoblot. In kind it is cell-based. As for the experimental part:
Cells were pretreated with peptide at 10, 30 and 100 mM for 15 minutes followed by treatment with 25 ng/ml VEGF for 10 minutes, and cells were immediately extracted by lysis buffer (64 mM Tris-HCl, pH 6.8, 0.2 mM Na3VO4, 2% SDS, 10% glycerol, 0.1 mM AEBSF, […] leupeptin). KDR phosphorylation was determined by immunoblotting cell extracts with antibodies which recognise either KDR phosphorylated at Tyrosines 1054 and 1059 (purchased from Oncogene Research Products Inc.) or total KDR (purchased from Santa Cruz Inc.). Immunoreactive bands were visualised by chemiluminescence using horseradish peroxidase-conjugated anti-rabbit IgG and ECL reagent.
(Immunoblotting shows a protein as a band on a membrane.)

Another assay has as its target T4, NP-1 (Homo sapiens, UniProt O14786).
T4 construct: the breast carcinoma cell line MDA-MB-231, that naturally expresses only NP-1 receptors for VEGF; endogenous in cells; host or cells: MDA-MB-231
Put plainly: radiolabelled VEGF binding to MDA-MB-231 cells. Conditions: FIG. 4; cells naturally express only NP-1 receptors for VEGF.

The next assay has as its system HUVECs. The note with it: Soker et al, J. Biol. Chem. 272 (1997); cited from earlier work.

T1 sequence (O14786 22-923, species assumed): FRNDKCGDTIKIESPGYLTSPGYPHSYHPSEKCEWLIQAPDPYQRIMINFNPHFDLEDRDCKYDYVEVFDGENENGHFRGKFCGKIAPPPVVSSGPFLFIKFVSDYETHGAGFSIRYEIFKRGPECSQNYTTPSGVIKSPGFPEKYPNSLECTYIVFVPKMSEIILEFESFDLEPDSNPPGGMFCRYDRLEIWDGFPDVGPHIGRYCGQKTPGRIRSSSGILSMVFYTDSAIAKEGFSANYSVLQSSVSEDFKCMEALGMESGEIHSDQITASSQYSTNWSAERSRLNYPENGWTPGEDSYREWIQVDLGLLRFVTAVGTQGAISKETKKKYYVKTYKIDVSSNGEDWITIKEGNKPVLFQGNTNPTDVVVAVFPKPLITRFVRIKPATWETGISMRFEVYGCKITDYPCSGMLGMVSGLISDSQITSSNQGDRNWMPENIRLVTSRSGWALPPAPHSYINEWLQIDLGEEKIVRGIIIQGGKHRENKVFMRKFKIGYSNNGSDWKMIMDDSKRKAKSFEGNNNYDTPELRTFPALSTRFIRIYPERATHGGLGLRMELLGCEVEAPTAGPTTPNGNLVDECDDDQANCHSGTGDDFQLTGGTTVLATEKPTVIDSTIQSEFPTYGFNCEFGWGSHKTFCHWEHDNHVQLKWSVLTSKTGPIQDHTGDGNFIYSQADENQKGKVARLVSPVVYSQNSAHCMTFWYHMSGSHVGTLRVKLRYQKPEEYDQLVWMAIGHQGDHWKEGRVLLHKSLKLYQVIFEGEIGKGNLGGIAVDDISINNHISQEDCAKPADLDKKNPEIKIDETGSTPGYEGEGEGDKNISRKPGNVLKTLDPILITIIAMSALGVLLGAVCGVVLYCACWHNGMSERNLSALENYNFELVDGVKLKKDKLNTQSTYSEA
T2 sequence (P35968 20-1356, species assumed): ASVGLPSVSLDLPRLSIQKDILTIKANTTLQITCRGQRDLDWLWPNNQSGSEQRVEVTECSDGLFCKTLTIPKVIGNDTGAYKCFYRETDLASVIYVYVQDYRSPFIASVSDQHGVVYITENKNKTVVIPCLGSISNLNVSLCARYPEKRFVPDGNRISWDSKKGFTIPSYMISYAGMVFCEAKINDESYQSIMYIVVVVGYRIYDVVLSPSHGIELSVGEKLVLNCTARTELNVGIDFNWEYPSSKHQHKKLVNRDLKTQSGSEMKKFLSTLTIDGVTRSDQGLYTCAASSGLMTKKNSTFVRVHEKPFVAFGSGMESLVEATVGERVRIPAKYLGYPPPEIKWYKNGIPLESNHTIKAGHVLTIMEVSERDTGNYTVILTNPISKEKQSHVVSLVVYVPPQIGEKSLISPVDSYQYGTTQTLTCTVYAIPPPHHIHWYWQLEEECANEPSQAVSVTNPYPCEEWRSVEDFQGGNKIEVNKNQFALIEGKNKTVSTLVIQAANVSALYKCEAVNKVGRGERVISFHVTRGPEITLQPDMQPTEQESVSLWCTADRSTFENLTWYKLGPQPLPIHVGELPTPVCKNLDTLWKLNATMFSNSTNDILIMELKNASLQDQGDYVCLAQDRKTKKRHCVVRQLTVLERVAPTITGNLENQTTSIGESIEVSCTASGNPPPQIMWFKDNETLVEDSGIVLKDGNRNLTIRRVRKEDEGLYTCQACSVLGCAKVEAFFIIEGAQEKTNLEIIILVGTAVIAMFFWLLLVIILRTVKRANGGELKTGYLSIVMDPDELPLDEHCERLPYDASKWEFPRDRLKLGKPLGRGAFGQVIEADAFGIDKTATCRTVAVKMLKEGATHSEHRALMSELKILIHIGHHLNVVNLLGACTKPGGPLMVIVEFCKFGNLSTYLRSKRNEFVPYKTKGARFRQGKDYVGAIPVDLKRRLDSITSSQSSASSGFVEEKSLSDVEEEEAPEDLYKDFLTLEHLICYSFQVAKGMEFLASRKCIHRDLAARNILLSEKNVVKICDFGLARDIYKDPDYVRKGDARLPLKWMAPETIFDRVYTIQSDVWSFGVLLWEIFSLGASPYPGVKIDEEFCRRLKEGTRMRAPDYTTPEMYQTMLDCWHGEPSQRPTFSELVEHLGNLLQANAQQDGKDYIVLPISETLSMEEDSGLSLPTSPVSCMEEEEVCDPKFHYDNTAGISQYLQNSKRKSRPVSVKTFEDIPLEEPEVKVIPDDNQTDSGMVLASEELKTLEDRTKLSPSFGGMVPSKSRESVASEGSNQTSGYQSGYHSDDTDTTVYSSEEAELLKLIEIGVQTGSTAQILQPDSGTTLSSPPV
T3 sequence (P17948 27-1338, species assumed): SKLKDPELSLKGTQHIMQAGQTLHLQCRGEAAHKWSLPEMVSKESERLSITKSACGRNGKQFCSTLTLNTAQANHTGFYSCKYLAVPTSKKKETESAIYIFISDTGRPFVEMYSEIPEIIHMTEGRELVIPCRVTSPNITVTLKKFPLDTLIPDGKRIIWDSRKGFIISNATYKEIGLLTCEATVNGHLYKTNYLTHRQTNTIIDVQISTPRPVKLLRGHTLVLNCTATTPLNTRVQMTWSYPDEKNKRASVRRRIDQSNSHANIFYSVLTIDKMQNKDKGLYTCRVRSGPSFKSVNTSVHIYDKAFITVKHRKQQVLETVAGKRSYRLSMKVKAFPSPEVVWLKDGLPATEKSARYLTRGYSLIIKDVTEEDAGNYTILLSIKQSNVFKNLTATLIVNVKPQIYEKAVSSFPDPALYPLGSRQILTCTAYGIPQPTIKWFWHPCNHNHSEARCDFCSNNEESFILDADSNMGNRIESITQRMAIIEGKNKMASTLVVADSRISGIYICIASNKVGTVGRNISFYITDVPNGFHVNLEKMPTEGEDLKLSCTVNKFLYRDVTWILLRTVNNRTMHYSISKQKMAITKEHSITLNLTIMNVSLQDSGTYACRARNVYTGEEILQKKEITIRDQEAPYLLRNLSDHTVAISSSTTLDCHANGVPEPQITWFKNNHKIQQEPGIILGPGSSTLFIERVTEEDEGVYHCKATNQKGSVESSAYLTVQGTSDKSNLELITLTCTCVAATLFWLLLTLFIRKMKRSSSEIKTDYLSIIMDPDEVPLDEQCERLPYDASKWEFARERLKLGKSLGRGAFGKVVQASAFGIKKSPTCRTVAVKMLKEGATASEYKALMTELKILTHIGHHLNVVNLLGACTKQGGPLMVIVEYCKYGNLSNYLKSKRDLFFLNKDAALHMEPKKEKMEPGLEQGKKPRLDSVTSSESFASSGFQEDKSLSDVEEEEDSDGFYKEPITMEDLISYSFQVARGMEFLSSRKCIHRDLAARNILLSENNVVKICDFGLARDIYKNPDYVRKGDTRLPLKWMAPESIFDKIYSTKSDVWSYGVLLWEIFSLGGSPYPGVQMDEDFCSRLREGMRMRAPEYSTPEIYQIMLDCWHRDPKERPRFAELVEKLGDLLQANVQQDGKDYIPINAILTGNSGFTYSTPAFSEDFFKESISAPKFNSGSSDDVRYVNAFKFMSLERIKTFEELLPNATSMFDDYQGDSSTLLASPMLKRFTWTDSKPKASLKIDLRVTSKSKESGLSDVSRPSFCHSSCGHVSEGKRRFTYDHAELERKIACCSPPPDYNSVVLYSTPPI
T4 sequence (O14786 22-923): as the sequence (O14786 22-923, species assumed) above

Turning to “EG3287: bicyclic form of SEQ ID NO. 2, SCKNTDSRCKARQLELNERTCRCDKPRR, amino acids 138 to 165 within VEGF (not fully specified (N-terminus, C-terminus, bridges); also: bicyclic, two disulfides, pairing not given here; listed as Homo sapiens)”, in the assay with Neuropilin-1 (NP-1) (FIG. 1, peptide 100 μM, porcine aortic endothelial cells expressing only NP-1), the “effect on 125I-VEGF165 binding to PAE/NP1 cells” value is “inhibition”. For the same substance, the “inhibition of 125I-VEGF165 binding to PAE/NP-1 cells” value in the assay with Neuropilin-1 (NP-1) (FIG. 2) is “specific, selective inhibition”. The “effect on 125I-VEGF165 binding to PAE/KDR cells” value with KDR [1] is “no effect”. In the assay with Flt-1, the “effect on 125I-VEGF165 binding to PAE/Flt-1 cells” value is on record as “no effect”. The “radiolabelled VEGF binding to HUVEC” value in assay [2] is given as “inhibited”. The “VEGF-induced KDR phosphorylation” value in the assay with KDR [3] was “inhibited”. For the same substance, in the assay with NP-1, the “binding of radiolabelled VEGF to breast carcinoma cell line MDA-MB-231” value is given as “inhibited”.

Consider “SEQ ID NO. 1: CSCKNTDSRCKARQLELNERTCRC, shortest active peptide of Soker et al; amino acids 22-44 of exon 7 and amino acid 1 of exon 8 (listed as Homo sapiens)”, for which, in the assay on HUVECs, the “inhibition of VEGF binding to HUVECs” value is recorded as “active”.
